This is an account of results in patent US8198236B2, “Methods and compositions for the treatment of cancer” (Washington University, priority 2007, dated 2012).

Data set [1] concerns the target T1, LRP6 (Homo sapiens, UniProt O75581).
T1 construct: expressed in transfected cells; host or cells: human HT1080 cells, retroviral vector pLNCX2
The data set can be described thus: 125I-Mesd cell surface binding to LRP6-transduced HT1080 cells. The protocol: (§1) To examine whether Mesd binds with high affinity to most members of the LDLR family at the cell surface, we performed cell surface ligand binding experiments with cells stably transduced with LRP6 cDNA. Human HT1080 cells, which express undetectable levels of LRP6, were transduced with a viral vector alone (pLNCX2) or with vector containing LRP6 cDNA (Li, Y., Oncogene 23: 9129-9135, 2004) and used for ^125I-Mesd binding (FIG. 1A). ^125I-Mesd (5 nM) reached maximal binding after 2 hours incubation at 4° C. with LRP6-expressing HT1080 cells (FIG. 1A).
(§2) (A) Time course of ^125I-Mesd (5 nM) binding to LRP6-transduced HT1080 cells and the control cells. Assay was carried out for the indicated periods at 4° C. in the absence (total) or presence of 500 nM Mesd (non-specific). (B) Saturation binding of ^125I-Mesd to LRP6-transduced HT1080 cells and the control cells. Assay was carried out at indicated concentrations for 3 hours at 4° C. in the absence (total) or presence (non-specific) of 500 nM Mesd. (C) Scatchard plots of data in B. All values are the average of triple determinations with the s.d. indicated by error bars.
(§3) Cells (2×10^5) were seeded into 12-well dishes 1 day prior to assay. Ligand-binding buffer (minimal Eagle's medium containing 0.6% BSA with a different concentration of radioligand, 0.6 ml/well) was added to cell monolayers, in the absence or the presence of 500 nM unlabeled RAP or 500 nM unlabeled Mesd, followed with incubation for 0-4 hours at 4° C. Thereafter, overlying buffer containing unbound ligand was removed, and cell monolayers were washed and lysed in low-SDS lysis buffer (62.5 mM Tris-HCl pH 6.8, 0.2% SDS, 10% v/glycerol) and counted.
(§4) To analyze the Mesd sequences that are required for Mesd to bind to mature LRP6 at the cell surface with high affinity, sequences were compared between mouse Mesd and its homologs from different species. […] We thus generated two truncated Mesd mutants lacking either the N-terminal region, MESD (12-195), or both the N-terminal and C-terminal regions, Mesd (12-155) (FIG. 3A). The ability of these mutants to bind to cell surface LRP6 was then assessed.
(§5) In this example, a truncated Mesd mutant containing the last 45 amino acids of C-terminal region was generated (FIG. 3A) and its binding affinity for LRP6 was then analyzed. […] (A) Binding analyses of ^125I-Mesd and its mutant Mesd (150-195) (5 nM) to LRP6-transduced HT1080 cells and control cells. (B) Binding analyses of ^125I-Mesd and its mutant Mesd (150-195) (5 nM) to LRP6-transduced HT1080 cells. Assays were carried out for 3 hours at 4° C. in the absence or presence of 500 nM Mesd or its mutant. Values are the means of triple determinations with the s.d. indicated by error bars.
(§6) LRP6-mediated Mesd uptake and degradation was investigated in the experiments illustrated in FIG. 7. (A) LRP6-mediated ^125I-Mesd (5 nM) degradation in LRP6-transduced HT1080 cells and control cells was carried out for 4 hours at 37° C. in the absence or presence of 500 nM Mesd. (B) ^125I-Mesd (5 nM) binding to LRP6-transduced HT1080 cells and the control cells was carried out for 4 hours at 4° C. in the absence or presence of 500 nM Mesd. Values are the means of triple determinations with the s.d. indicated by error bars.

Data set [2] concerns LRP6. Described as above. The settings on record: HT1080 cells transduced with vector alone. Details: species or system human. The protocol: as §1, §2, §3, §4, §5, §6
A further data set deals with MMTV-Wnt1 tumors. The data set can be described thus: MMTV-Wnt1 tumor transplant growth in nude mice. Format: in vivo. The conditions noted are these: i.p. every other day, first dose 15 mg/kg then 10 mg/kg, three weeks. Here is the method: Recombinant Mesd protein was prepared as described (Li Y, et al. (2005) J Cell Sci 118(22): 5305-5314). Mesd peptide, […] (SEQ ID NO: 14), was manufactured by Abgent (San Diego). Female athymic nude mice (Taconic) (6-8 weeks old) were used for passaging tumors from MMTV-Wnt1 mice (Taconic). MMTV-Wnt1 tumors were serially passaged in mice by implantation in the mammary fat pad as described (DeAlmeida V, et al. (2007) Cancer Res 67, 5371-5379). Therapeutic agents (200 μL Mesd protein, Mesd peptide or PBS) were administrated i.p. with a first dose of 15 mg/kg, followed by 10 mg/kg (9 more doses). Three groups of mice were treated every other day for three weeks and tumor volumes were measured thrice weekly.
The pharmacokinetics and bioavailability of Mesd and Mesd peptide ([…] (SEQ ID NO: 14)) were first investigated (FIG. 23). Cells from MMTV-Wnt1 tumors were injected into the mammary fat pads of female nude mice, and the resultant mice were subsequently randomly grouped when the mean tumor volume reached ca. 200 mm^3. […]
In these experiments, mice bearing established MMTV-Wnt1 tumor transplants were divided into three groups (five animals per group) and were i.p. injected with PBS (vehicle), Mesd, or Mesd peptide every other day. Tumor volume was analyzed using caliper measurement. […]

Data set [3] can be described thus: Pharmacokinetics of 125I-labeled Mesd or Mesd peptide, intravenous or subcutaneous.
Description: In experiments shown in FIG. 23, pharmacokinetics of Mesd peptide and Mesd were examined. FIG. 23A: Amount of Mesd in serum following a single dose of protein administration. Mice were dosed at 5, 10, 20 mg/kg of Mesd via i.p. and the serum samples were collected from individual mice at the indicated time points. The levels of Mesd in serum were quantified by comparison to Mesd pure protein with known concentrations in Western blot analysis. Values are the average of triple determinations with S.D. indicated by error bars. […] Samples were obtained by terminal bleed under anesthesia at each of the indicated time points (N=3 animals per time point). Radioactivity was measured using a gamma counter and DPM converted to mass units/mL blood using the specific activity (DPM/mass) of each test substance. Data are plotted as mass U/mL of test substance with standard deviation indicated by error bars.

T1 sequence (O75581 20-1613): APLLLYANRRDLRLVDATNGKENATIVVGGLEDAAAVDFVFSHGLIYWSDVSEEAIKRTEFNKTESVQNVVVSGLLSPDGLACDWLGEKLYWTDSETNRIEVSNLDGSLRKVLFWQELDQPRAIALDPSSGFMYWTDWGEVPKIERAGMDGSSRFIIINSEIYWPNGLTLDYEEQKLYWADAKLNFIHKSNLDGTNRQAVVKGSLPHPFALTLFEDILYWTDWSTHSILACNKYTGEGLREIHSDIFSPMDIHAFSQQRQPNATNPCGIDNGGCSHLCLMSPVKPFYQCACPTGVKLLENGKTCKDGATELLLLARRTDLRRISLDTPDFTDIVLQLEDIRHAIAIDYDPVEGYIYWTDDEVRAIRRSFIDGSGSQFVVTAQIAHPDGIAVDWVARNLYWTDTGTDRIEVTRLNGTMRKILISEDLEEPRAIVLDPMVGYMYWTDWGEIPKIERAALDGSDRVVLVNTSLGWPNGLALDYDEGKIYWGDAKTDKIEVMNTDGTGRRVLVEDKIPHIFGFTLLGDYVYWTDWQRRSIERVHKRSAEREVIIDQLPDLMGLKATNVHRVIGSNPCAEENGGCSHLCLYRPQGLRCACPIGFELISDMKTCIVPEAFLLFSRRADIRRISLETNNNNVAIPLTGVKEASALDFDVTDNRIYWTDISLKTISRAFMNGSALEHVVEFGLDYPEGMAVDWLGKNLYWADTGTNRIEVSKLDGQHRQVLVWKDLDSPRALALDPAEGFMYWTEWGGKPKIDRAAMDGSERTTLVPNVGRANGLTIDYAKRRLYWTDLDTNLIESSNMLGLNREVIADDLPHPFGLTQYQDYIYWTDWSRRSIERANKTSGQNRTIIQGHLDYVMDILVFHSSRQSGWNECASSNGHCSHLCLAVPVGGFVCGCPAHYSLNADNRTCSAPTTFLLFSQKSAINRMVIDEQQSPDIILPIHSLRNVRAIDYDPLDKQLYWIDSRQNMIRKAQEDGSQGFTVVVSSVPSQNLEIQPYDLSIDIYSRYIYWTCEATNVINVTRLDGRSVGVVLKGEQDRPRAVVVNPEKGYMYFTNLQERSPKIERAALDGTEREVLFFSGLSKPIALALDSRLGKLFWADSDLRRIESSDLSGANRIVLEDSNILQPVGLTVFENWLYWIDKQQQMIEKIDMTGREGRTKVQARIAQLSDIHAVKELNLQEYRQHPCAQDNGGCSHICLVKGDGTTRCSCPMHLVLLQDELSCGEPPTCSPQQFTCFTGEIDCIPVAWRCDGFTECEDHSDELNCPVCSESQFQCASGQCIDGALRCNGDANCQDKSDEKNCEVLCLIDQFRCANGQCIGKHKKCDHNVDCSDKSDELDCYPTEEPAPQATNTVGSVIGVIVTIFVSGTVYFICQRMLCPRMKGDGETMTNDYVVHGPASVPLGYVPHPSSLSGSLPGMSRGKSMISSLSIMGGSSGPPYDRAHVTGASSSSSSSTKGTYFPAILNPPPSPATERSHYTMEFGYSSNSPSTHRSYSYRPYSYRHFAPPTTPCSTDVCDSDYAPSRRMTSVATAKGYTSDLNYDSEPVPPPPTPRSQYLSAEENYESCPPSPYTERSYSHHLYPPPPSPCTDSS

B1: Mesd: Recombinant full-length mouse Mesd expressed in E. coli, N-terminal polyhistidine tail, lacking the signal peptide (protein)
chain: ADTPGEATPPPRKKKDIRDYNDADMARLLEQWEKDDDIEEGDLPEHKRPSAPIDFSKLDPGKPESILKMTKKGKTLMMFVTVSGNPTEKETEEITSLWQGSLFNANYDVQRFIVGSDRAIFMLRDGSYAWEIKDFLVSQDRCAEVTLEGQMYPGKGGGSKEKNKTKPEKAKKKEGDRKPRASKEDNRAGSRREDL
modifications: left off: small tags and cut ends
notes: Recombinant full-length mouse Mesd expressed in E. coli, N-terminal polyhistidine tail, lacking the signal peptide
The molecule B1 returned a 125I-Mesd binding with LRP6 [1] (5 nM, 4 hours at 4° C.) of 1320 fmoles/mg cell protein. The “Concentration at which Mesd specific binding saturates” value with LRP6 [1] (LRP6-transduced HT1080 cells, 3 hours at 4° C.) was over 6.4 nM. Further, in the data set with LRP6 [2], the “125I-Mesd binding to control cells (pLNCX2)” value is recorded as “No significant”. In addition, the “Tumor growth (tumor volume, caliper)” value in the data set on MMTV-Wnt1 tumors is listed as “significantly inhibit tumor growth”. This molecule showed a Bioavailability in data set [3] (intravenous (tail vein) or subcutaneous) of 60%. Besides, in data set [3] (thyroid/parathyroid, liver, kidney, stomach, gastrointestinal tract), the Distribution into tissues result was “rapid and widespread”.
